Test results reported in the nanobody polyreactivity screen of Harvey et al. (2022).

Experiment: yeast display, Sf9 membrane polyspecificity reagent, FACS + sequencing; frameworks hold sequencing errors
Summary of the method: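 Genes from sorted yeast were amplified by colony PCR, read by MiSeq 2 × 250 sequencing and filtered on CDR length. These cells carried a synthetic nanobody library in Saccharomyces cerevisiae BJ5465 and were sorted by FACS into low and high (top ~1%) gates on anti-HA and streptavidin fluorescence. Polyreactivity is labelled according to the gate of origin.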

Sequence	polyreactivity (PSR sort gate)
QVQLVESGGGLVQAGGSLRLSCAASGSTFVYYAMGWYRQAPGKERELVATINYNGGSTSYADSVKGRFTISRDNAKNTVYLQMNSLKPEDTAVYYCAKDRYYTWGDYWGQGTQVTVSS	low polyreactivity
QVQLVESGGGLVQAGGSLRLSCAASGRTFYRNAMGWYRQAPGIERELVAVISQRGGRTFYADSVKGRFTISRDNAKNTVYLQMNSLKPEDTAVYYCAAPTQSYAHQGFGYWGQGTQVTVSS	high polyreactivity
QVQLVESGGGLVQAGGSLRLSCAASGSIFTPNAMGWYRQAPGKERELVAAISQSGGSTYYADSVKGRFTISRDNAMNTVYLQMNSLKPEDTAVYYCGASVRHRGYDYWGQGTQVTVSS	high polyreactivity
QVQLVESGGGLVQAGGSLRLSCAASGFIFVKYAMGWYRQAPGKERELVAAITNGGSTYYADSVKGRFTISRDNAKNTVYLQMNSLKPEDTAVYYCAAQYHDWWRRLLYRSFLPFDYWGQGTQVTVSS	low polyreactivity
QVQLVESGGGLVQAGGSLRLSCAASVSIFYHYAMGWYRQAPGKESELVAAIDRTGGSTYYADSVKGRFTISRDNAKNTVYLQMNSLKPEDTAVYYCDADWDYADYYGFQYDYWGQGTQVTVSS	low polyreactivity
QVQLVESGGGLVQAGGSLRLSCAASGSIFGLNAMGWYRQAPGKERELVARISTGSSTNYADSVKGRFTISRDHAKNSVYLQMNSLKPEDTAVYYCNADYPYYPYRENYWGQGTQVTVSS	low polyreactivity
QVQHVESGGGLVQAGGSLRLSCAASGFTFAIYGKGWYRQAPGKERELVAAINWSGGRTYYADSVKGRFTISRDNAKNTVYVQMQSLKPDDTAVYYCAARYVSRWYDYEFWGQGTQVTVSS	high polyreactivity
QVQLVESGGGLVQAGGSLRLSCAASGRTISWYVMGWYRQAPGKERELVAAISWNGGRTYYADSVKGRFTISRDNAKNTVYLQMNSLKPEDTAVYYCAAKNYHGYPFDYWGQGTQVTVSS	high polyreactivity
QVQLVESGGGLVQAGGSLRLSCAASGFTFVVNAMGWYRQAPGKERELVATIRSNGGSTYYADSVKGRFTISRDNAKNTVYLQMNSLKPEDTAVYYCNTDRKHQSGRESAEMDYWGQGTQVTVSS	low polyreactivity
QVQLVESGGGLVQAGGSLRLSCAASGIILYGYSMGWYRQAPGKERELVAAISWDGGSTYYADSVKGRFTISRDNAKNTVYLQMISLIPEDTAVYYCNALGGSEYDYWGQGTQVTVSS	low polyreactivity
QVQLVESGGGLVQAGGSLRLSCAASGSTFYSYAMGWYRQAPGKERELVASITRGGSTNYADSVKGRFTISRDNAKNTVYLQMNSLKPEDTAVYYCITRGNARMDYWGQGTQVTVSS	high polyreactivity
QVQLVESGGGLVQAGGSLRLSCAASGSTFGYYAMGWYRQAPVKERELVAAISAGDRTYYADSVKGRFTISRDNATNTLYLQMNSLKPEDTAVYYSAARPLRSRNGYYWGQGTQGTVSS	high polyreactivity
QVQLVESGGGLVQAGGSLRLSCADSGRTFYQNAKGWYRQAPGKEREFVAAISWSSGSTYYADSVKGRFTISRDYAKNTVYLQMNSLKPEDTAVYYCAAYTSFPYIWYGYWGQGTQVTVSS	high polyreactivity
QVQLVESGGGLVQAGGSLRLSCAASGLTFASNAMGWYRQAPGKERELVAAISWSDGSTYYADSVKGRFTISRDNAKNTVYLQMNSLKPEDTAVYYCAAESYFFSPRTREKFDYWGQGTQVTVSS	low polyreactivity
QVQLVESGGGLVQAGGSLRLSCAASGRTSYYAMGWYRQAPGKERELVAAINSGDSTTYADSVKGRFTISRDNAKNTVYLQMNSLKPEDTAVYYCATALYDWYSLEFDYWGQGTQVTVSS	low polyreactivity
QVQLVESGGGLVQAGGSLRLSCAASGSIFGYNAMGWYRQAPGKERELVAVITRSDGSTYYADSVKGRFTISRDNAKNTVYLQMNSLKPEDTAVYYCNAETHVYYWGVVIYEYNYWGQGTQVTVSS	low polyreactivity
HVQLVESGGGLVQAGGSLRLSCAASGSIFVLNAMGWYRQAPGKERELVAAITNVGSTYYADSVKGRFTISRDNAKNTVYLQMNSLKPEDTAVYYCNADPGEVLVGYDYWGQGTQVTVSS	low polyreactivity
QVQLVESGGGLLQAGGSLRLSCAASGITFTGYAMGWYRQAPGKERELVAVISETGGSTYADSVKGRFTISRDNAKNTVYLQMNSLKPEDTAVYYCAARLWWPYSTAWAKMDYWGQGTQVTVSS	low polyreactivity
QVQIEESGGGLVQAGGSHRLSCAASGRTFGGNAMGRYRQAPRKERELVAAISISGGSNTYYADSVKGRFTISRDTGKNTVYLQMNSLKPEDTAVYFCAARSTVYISSDYWGQGTQVTVSS	low polyreactivity
QVQLVESGGGLVQAGGSLRLSCAASGSTIYVNAMGWYIQAPGKERELVAAIRSSAGNTTYADSVKGRFTISRDNAKNTVYLQMNSLKPEVTAVYYCAADSRPYLRDYWGQGTQVTVSS	low polyreactivity
QVQLQESGGGLVQAGGSLRLSCAASGYISTFSSEMGWYRQAPGKERELVASIAPGCTTSYADSVKGRFTISRDNAKNTVYLQMNSLKPEDTAVYYCAVDYTVPASFGYWGQGTQVTVSS	high polyreactivity
QVQLVESGGGLVQAGGSLRLSCAASGSTFQNNPMGSYRQAPGKERELVATISRRGGSTYYADSVKGRFTISRDNAKNTVYLQMNRLKPEDTAVYYCAAQAPNYAHRYYYWGQGTQVTVSS	high polyreactivity

Sequence	polyreactivity (PSR sort gate)
QVQLVESGGGLVQAGGSLRLSCAASGITFYGYTMGWYRQAPGKERELVAAITYFGSTYYADSVKGRFTISRDNAKNTVYLQMNSLKPEDTAVYYCAAQRFRSGWFGYWGQGTQVTVSS	high polyreactivity
QVQLVESGGGLVQAGGSLRLSCAASGSTFDRNAMGWYRQAPGKERELVASITWTGGSTYYADSVKGRFTISRDNAKNTVYLQMNSLKPEDTAVYYCNADLLYLDYLYGLDYWGQGTQVTVSS	high polyreactivity
QVQLVDSGGGLVKAGGSLRISCPASGITLKYYSMGWYRPSPGKERELVAAITRSGVGTYYADSVKGRFTISRDNAKNTVYLQMNSLKPEDTAVYYCAARGGWLQTKYDYWGQGTQVTVSS	high polyreactivity
QVQLVESGGGLVHAGGSLRLSCAASGIIFDDYAMGSYRQPPGKERELVAAISGRGGRTYYADSVKGRFTISRDNAKNTVYLQMNSLKPEDTAVYYCAGGGRVRYDYWGQGTQVTVSS	low polyreactivity
QVQLVESGGGLVQAGGSLRLSCAATGSTFHNYAMGWYRQAPGKERELGAGISVRGGGTYYADSVKGRFTISRDNAKNTVYLQMNSLKPEDTAVYYFAKRSRYYYRYDYWGQGTQVTVSS	high polyreactivity
QVQLVESGGGLVQAGGSLRLSCAASGRIFWYYAMGWYRQAPGKERELVADISTGGSTNYADSVKGRFTISRDNAKNTVYLQMNSLKPEDTAVYYCATTVPVILYVTPSTYAVVGYEYWGQGTQVTVSS	low polyreactivity
QVQLVESGGGLVQSGGSLRLSCAASGSIFIYYAMGWYRHAPGKERELVAAIDYSGDSTYYADSVKGRFTISRDNAKNTVYLQMNSLKPEDTAVYDCAVYYAGWGDYWGQGTQVTVSS	low polyreactivity
QVQLVESGGGLVQAGGSLRLSCAASGSTFYYNAMGGYRQAPGKEWELVATITSAGRTNYADSVKGRFTISRVNAKNTDYLQMNSLKPEDTAVYYCNARYRLSRYNYWGQGTQVTVSS	low polyreactivity
QVQLEESVGGLDQAGGSLRLSCAASGHIIVYYPLGWYRQAPGKERELVAAITSGGSTNYADSGKGRFTISRDNAKNTVYLQMNSLKPADSAVYYCAARQWFSHRRWGGSRYDYWGQGTQVTVSS	low polyreactivity
QVQLVESGGGLVQAGGSLRLSCAASGFTFKRYAMGWYRQAPGNERELVAAISYSGGSTYYADSVKWRFTISRDNAKNTVYLQMKSLKPEDTAVYYCAAPRGHGKYYSWGQGTQVTVSS	high polyreactivity
QVQLVESGGGLVQAGGSLRLICAASGRTFGSNAMGWYTQAPGKERELVAAIRERGGSTYADSVKGRFTISRDNAKNTVYLQMNCLKQEDTAVYYCNAVYVRSSLYYTGWSTFYYWGQGTQVTVSS	low polyreactivity
QVQLVESGGGLVQAGGSLRLSCPASGRTFSSYAMGWYRPAPGKERELVAAISRRGGSTYYADSVKGRFTISRDNAKNTVYLKMNSLKPEDTAVYYCAADVYKQYGYYYWGQGSQVTVSS	high polyreactivity
QVQLVESGGGLVQEGGSLRLSCAASGGIFSAYAMGWYRQAPGKERELVAAISRTGGSTYYADSVKGRFTISRDNAKITVYLQMTSLKPEDTAVYYCNADYRRYPEFDYWGQGTQVTVSS	high polyreactivity
QVHLVESGGGLVQAGGSLRLSCAASGSTFYYTAMGWYRQPPGKESELVAAISRGGGSTYYADSVKGRFTISRDNAKNTVYVQMNSLKPEDTAVYYCAARRVGGGFYTWRNPAYEYWGQGTQVTVSS	high polyreactivity
QVQLVESGGGLVQAGGSLRLSCAASGSTFRYNAMGWYRQAPGKERELVAAITSGGTTNYADSVKGRFTISRDNAMNTVYLQMNILKPEDTAVYYCGKRGYYWTNLLYFLGYDYWGQGTQVTVSS	low polyreactivity
QVQLVESGGGLVQAGGSLRLSCAASGYTFRYYVMGWYIQAPGQERELVATISRGGRTNYADSVKGRFTISRDNAKNTVYLQMNSLKPEDTAVYYCNARTLYAYITRDYWGQGTQVTVSS	high polyreactivity
QVQLVESGGGLVQAGGSLRLSCAASGRIFNYYAMGWYRQAPGKERELVAAINSGGSTYADSVKGRFTISRDNAKNTVYLQMNSLKPEDTAVYYSAKDGQLQSGRERPSGYDHWGQGTQVTVSS	low polyreactivity
QVQLVESGGGLDQAGGSLRLSCAASGFIFYYYAMGWYRQAPGKEREFVAGISRRGGSSYYADSVKGRFTISRDNAKNTVYLQMNSLKPEDTAVYYCIVDFHWQRFHHKSAAYDYWGQGTQVTVSS	high polyreactivity
QVQLVESGGGLVQAGGSLRLSCDASGRTFRYYAMGWSRQAPGKERELVAAISASGGSTFYADSVKGRFTISRDNAKNSVYLQMKSLKPEDTAVYYCAAYHYCVFPYKQYDYWGQGTQVTVSS	high polyreactivity
QVQLVESGGGLVQAGGSLRLSCAASGSIFHIYMGWYRQSPGKERELVASNSYRGGTTYYADSVKGRFTISRDNAKNTVYLQMNSLKPEDTAVYDCNVDRYFYHYGRYGHMDYWGQGTQVTVSS	low polyreactivity
QVQHVESGRGLVQAGRSLRLSCAASGRIFQRYAMGWYRQAPGKERELVAVITKRGGNTYYADSVKGRFTISRDNAKNTVYLQMNSLKPEDTAVYYCASRSGRSTGDYWGQGTQVTVSS	high polyreactivity
